Data taken from patent US20210340238A1, “TGFß1 INHIBITORS AND USE THEREOF” (Scholar Rock, Inc., priority 2018, published 2021).
Entries after “also recorded” stand apart in the source; their conditions may differ.

Experiments:
Cell-associated proTGFβ1 = assay: Octet binding, cell average of hGARP and hLRRC33 complexes; set-up: species or system human; settings: average KD of (E) and (F), read-out: (G) Cell AVRG
Excerpt: Column (A) of the table provides monoclonal antibodies with discrete amino acid sequences. […] Columns (B), (C), (E) and (F) provide affinities of each of the listed antibodies, measured in KD, towards the antigen complex as indicated, respectively. […] Average KD values calculated from (B) and (C) are shown in the corresponding column (D), which collectively represents affinities of the antibodies to ECM- or matrix-associated proTGFβ1 complexes. Similarly, Average KD values calculated from (E) and (F) are shown in the corresponding column (G), which collectively represents affinities of the antibodies to cell-surface or cell-associated proTGF complexes. Finally, relative ratios between the average KD values from columns (D) and (G) are expressed as fold bias” in column (H). Thus, the greater the numerical of column (H) is, the greater bias exists for the particular antibody, when comparing binding preferences of the antibody for matrix-associated complexes to cell-surface complexes. This is one way of quantitatively representing and comparing inherent bias of antibodies to their target complexes. Such analyses may be useful in guiding the selection process for a candidate antibody for particular therapeutic use.

[1] = tested on: liver fibrosis (liver hydroxyproline); assay: CCl4 model of liver fibrosis; format: in vivo, mouse; settings: CCl4 mice, 4 weeks
Protocol: Carbon tetrachloride (CCl4) treatment of mice is a well-characterized model of liver fibrosis. In this model, Balb/C mice were dosed intraperitoneally (i.p.) twice weekly with 2.5 μl of a 20% CCl4 solution in corn oil per gram bodyweight. This CCl4 dosing was maintained throughout the duration of the study(6 weeks). After two weeks of CCl4 dosing, dosing with test articles started. […] After 6 weeks of CCl4 dosing (4 weeks of antibody treatment), mice were sacrificed and liver tissue was collected.
The hydroxyproline assay (see description above) was used to measure fibrosis in liver lysates from this study. […] The treatment effect of both TGFβ1-specific antibodies was similar to that of the pan-TGFβ inhibitor 1D11.

proTGFβ1 C4S [2] = target: T1, proTGFβ1 C4S (Homo sapiens, UniProt P01137, C33S); assay: HDX-MS determination of binding regions; settings: 1:3 molar ratio of proTGFβ1 to Fab
T1 sequence (P01137 30-390 C33S): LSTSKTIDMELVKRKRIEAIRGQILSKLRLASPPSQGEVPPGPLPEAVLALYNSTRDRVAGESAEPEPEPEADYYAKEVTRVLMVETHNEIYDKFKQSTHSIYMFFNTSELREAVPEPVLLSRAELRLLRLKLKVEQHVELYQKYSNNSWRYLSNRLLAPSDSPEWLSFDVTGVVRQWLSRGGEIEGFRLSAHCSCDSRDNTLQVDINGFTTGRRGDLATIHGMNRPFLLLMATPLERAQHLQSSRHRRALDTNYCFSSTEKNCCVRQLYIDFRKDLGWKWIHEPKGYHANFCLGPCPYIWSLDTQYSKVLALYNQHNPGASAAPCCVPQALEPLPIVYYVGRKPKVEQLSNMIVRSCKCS
Excerpt: Briefly, HDX-MS relies on the exchange of the protein backbone amide hydrogens with deuterium in solution. The backbone amide hydrogens involved in weak hydrogen bonds or located at the surface of the protein may exchange rapidly while those buried in the interior or those involved in stabilizing hydrogen bonds exchange more slowly. Based on the mass difference between hydrogen (1 Da) and deuterium (2 Da), which can be detected for example by mass spectrometry, the H-D exchange can be monitored overtime, Thus, by measuring HDX rates of backbone amide hydrogens, one can obtain information on protein dynamics, conformation and protein-protein interaction such as antibody-antigen-binding.
In HDX-MS, the regions of an antigen that are tightly bound by an antibody are protected from proton exchange, due to protein-protein interaction, while regions that are exposed to solvent can readily undergo proton exchange. Based on this, binding regions within the antigen, which are protected by the specific binding of the antibody, were identified.

human proTGFβ1 C4S/R249A = target: T2, human proTGFβ1 C4S/R249A (Homo sapiens, UniProt P01137, C33S/R278A); assay: X-ray crystallography of proTGFβ1:Ab2-Fab:AbX-Fab ternary complex; format: binding; settings: numbering after removal of signal sequence
T2 construct: made in house; host or cells: expi293 (kifunensine-treated), co-expressed with Ab2-Fab
T2 sequence (P01137 30-390 C33S/R278A): as the sequence (P01137 30-390 C33S) above, with R249A counted along it
Excerpt: In this work, an uncleavable human proTGFβ1 C4S/R249A variant was used that spans residues 30-390 based on the full-length sequence of human proTGFβ1 (Uniprot ID P01137). The numbering system that will be used for the rest of this document will designate position 1 as the first amino acid residue after the removal of the signal sequence for proTGFβ isoforms. The C4S mutation renders proTGFβ1 not capable of covalent crosslinking to any known presenting molecules, e.g. LTBPs and GARP, while the R249A renders proTGFβ1 resistant to proprotein convertase/furin protease cleavage, thus maintaining proTGFβ1 in its uncleaved, proprotein form. ProTGFβ1 C4S/R249A was co-expressed with C-terminally 6×-His tagged Ab2-Fab in kifunensine-treated expi293 mammalian expression system to reduce N-linked glycosylation events. The proTGFβ1 C4S/R249A:Ab2-Fab was affinity purified, treated with endoglycosidase H and purified by gel filtration. The proTGFβ1 C4S/R249A:Ab2-Fab complex was then incubated with AbX-Fab to generate the ternary complex. The AbX Fab in this context was used as an auxiliary protein, which acts as a crystallization chaperone to increase the probability of obtaining protein crystals.
Crystallization experiments were performed at room temperature in a sitting drop format. […]

proTGFβ1 C4S [3] = target: T1, proTGFβ1 C4S; assay: Octet Red384 pH-sensitivity of binding (dissociation at pH 7 and pH 5); settings: dissociation at pH 7 vs pH 5
Protocol: The antibodies were tested against sensor-immobilized human proTGFβ1 C4S, which contains a mutation in the prodomain to facilitate proTGFβ1 expression without disulfide linkage to a presentation molecule.
Then, the tips were moved into an activation solution for 5 minutes. […] The activation solution is prepared immediately before use in the experiment. After tip activation, the tips were loaded for 3 minutes with a 10 ug/mL solution of human proTGFβ1 C4S in 10 mM sodium acetate buffer pH 5. After loading, the tips were quenched in ethanolamine pH 8.5 for 15 minutes. The tips were then baseline/blocked with a 20 minute incubation in 1× enhanced kinetics buffer. 1× enhanced kinetics buffer (1×EKB) is 1× kinetics buffer (ForteBio part no 18-1105 diluted from 10× with PBS) with the addition of 2% BSA (Sigma A3059-100G), 0.5 M NaCl (FisherS671-10), and 0.09% tween-20 (P7949-500M). […] The dissociation was performed in 1×KB at pH 7 and pH 5.

[4] = Effective dose and therapeutic window across preclinical models (summary); format: in vivo
Excerpt: Effective amount: An “effective amount” (or therapeutically effective amount, or therapeutic dose) is a dosage, concentration, or dosing regimen that achieves statistically significant clinical benefits (e.g., efficacy) in a patient population.
Therapeutic window: The term “therapeutic window” refers to a range of doses/concentrations that produces therapeutic response without causing significant/observable/unacceptable adverse effect (e.g., within adverse effects that are acceptable or tolerable) in subjects. Therapeutic window may be calculated as a ratio between minimum effective concentrations (MEC) to the minimum toxic concentrations (MTC).

[5] = tested on: liver fibrosis (pSmad2/3, hydroxyproline, type I collagen); settings: CDHFD mice, weeks 4-12
Excerpt: The Choline deficient high fat diet (CDHFD) is an established dietary model of Non-Alcoholic steatohepatitis (NASH). In this model, male C57BL/6J mice are fed a choline deficient, 0.1% Methionine, high fat diet for 12 weeks. Three to six weeks after the start of the CDHFD, expression of α-sma protein (a marker for activation of hepatic stellate cells) increases and the development of hepatic fibrosis is accompanied by an increase in the hydroxyproline content accompanied by a rise in intrahepatic collagen synthesis and deposition (Matsumoto et. al, Int J Exp Pathol. 2013 April; 94(2):93-103).
Animals in the test cohorts were on the CDHFD for the duration of the study. A separate cohort of mice were administered a regular chow diet as a study control. […] Antibody test concentrations were as follows: 15 mg/kg, 5 mg/kg or 1.5 mg/kg twice a week (i.e., 30, 10, or 3 mg/kg/week) for a test duration of 8 weeks (i.e., weeks 4 thru 12). An IgG isotype antibody was used as a negative control at 15 mg/kg twice weekly (30 mg/kg/week). Following 8 weeks of dosing, animals were sacrificed and livers collected for analyses.
Serum measurements were also taken to determine the extent of antibody exposure during the study.
TGFβ1 receptor engagement leads to intracellular signaling events including the phosphorylation of Smad2 and Smad3.
Hydroxyproline is a signature amino acid for fibrillar collagens and comprises approximately 13.5% of the protein. […] Hydroxyproline acts as an important diagnostic indicator of the severity of fibrosis.
To assess the levels of type 1 collagen deposition in livers from CDHFD-treated mice, immunohistochemistry (IHC) protocols were developed for anti-mouse type I collagen antibody (rabbit polyclonal; Abcam; ab21286) using the Leica Bond RX staining system. Mouse liver was collected and fixed in 10% neutral buffered formalin (NBF) for 24 hours at room temperature. Fixed livers were then trimmed into 3-5 mm cross sections and stored in 70% ethanol until processed for paraffin infiltration and embedding. Paraffin embedded livers were sectioned at 4 μm and mounted on slides for IHC staining. Type 1 collagen primary antibody was used at a 5 μg/mL final concentration along with a matched isotype primary control (rabbit monoclonal IgG; Cell Signaling Technologies; 3900S). Epitope retrieval was performed with a pH 6 citrate buffer incubated at 100° C. for 20 minutes. […]
Stained slides were sent to HistoTox Labs for imaging with an Aperio AT2 whole slide scanner and collagen staining was analyzed using Visiopharm image analysis software. […] Total collagen positive area was measured using an intensity-based thresholding algorithm which classified each pixel of the image as high positive, medium positive, low positive, or negative staining area.

B1: Ab2: isoform-selective inhibitor of TGFβ1 activation; VH SEQ ID NO: 13, VL SEQ ID NO: 15; human IgG4 (antibody, V domains shown)
VH: EVQLLESGGGLVQPGGSLRLSCAASGFTFADYAMTWVRQAPGKGLEWVSAISGSGAATYFADSVKGRFTISRDNSKNTLYLQMNSLRAEDTAVYYCARVSSGHWDFDYWGQGTLVTVSS
VL: DIQLTQSPSSLSASVGDRVTITCRASQSISSYLNWYQQKPGKAPKLLIYAASNLQSGVPSRFSGSGSGTDFTLTISSLQPEDFATYYCQQTYTVPLTFGGGTKVEIK
modifications: human IgG4 constant regions
With B1 the Kd (Cell-associated proTGFβ1) was 0.643 nM, the Liver hydroxyproline ([1]; high dose 15 mg/kg i.p. twice weekly) was “statistically significant reduction in liver hydroxyproline” and the Liver hydroxyproline ([1]; lower doses 5 or 1.5 mg/kg i.p. twice weekly) was “trend towards reduced liver hydroxyproline, but these differences are not statistically significant”. The “Regions of proTGFβ1 protected from H/D exchange upon Fab binding (binding regions 1, 2, 3)” value (proTGFβ1 C4S [2]) was “LREAVPE; also recorded: WKWIHEPKGYHANFCLG”, the “Epitope on proTGFβ1 from crystal structure” value (human proTGFβ1 C4S/R249A) was “linear epitope formed by residues 35-43” and the “pH sensitivity of binding” value (proTGFβ1 C4S [3]) was “Ab2 is pH-sensitive”. For the same molecule, the Effective amount [4] was 3 to 30 mg/kg, the “Relative ratio of phosphorylated Smad2/3 in liver lysates (ELISA)” value ([5]; 15, 5 or 1.5 mg/kg i.p. twice a week) was “significantly reduced the relative ratio of phosphorylated Smad2/3 compared to IgG control; also recorded: inverse correlation between serum levels of Ab2 and phosphorylated Smad2/3; also recorded: significantly reduces phosphorylation of Smad2/3 as compared to Ab3 and IgG treated mice on CDHFD” and the “Liver fibrosis as measured by hydroxyproline levels” value ([5]; i.p. twice a week, vs IgG control) was “marked reduction in collagen deposition”.
